According to patent US20060153778A1 (MannKind Corporation, priority 2005, published 2006):
Read-outs that look alike come from different tables or passages of the source.

Legend:
[1] = in vivo
[2] = Glucose clamp study: serum insulin concentrations, bioavailability; assay type: in vivo, human
Source text: (§1) The volunteers were in good health, as judged by physical examination, age: 18 to 40 years, body mass index: 18 to 26 kg/m^2, capability to reach peak inspiratory flow of ≧4 L/sec measured by a computer assisted spirometry and a FEV1 (FEV1=forced expiratory volume in one second) equal to or greater than 80% of predicted normal.
(§2) On the morning of the study days, the subjects came to the hospital (fasting, except for water, from midnight onward) at 7:30 a.m. The subjects were restricted from excessive physical activities and an intake of alcohol for 24 hours before each treatment day. They were randomly assigned to one of the three treatment arms. […] Blood glucose was kept constant at a level of 90 mg/dL throughout the glucose clamp by a glucose controlled infusion system (BIOSTATOR™, Life Science Instruments, Miles Laboratories, Elkhart, Ind.). The glucose clamp algorithm was based on the actual measured blood glucose concentration and the grade of variability in the minutes before to calculate the glucose infusion rates for keeping the blood glucose concentration constant. […] The duration of the clamp experiment was 6 hours from time point 0.

[3] = Glucose clamp study after inhalation of Technosphere/Insulin: glucose infusion rate (biological action), tolerability; assay type: in vivo, human; conditions: for T-50% (time from baseline to half-maximal after passing Tmax), calculated on glucose infusion rate / Tmax, calculated on glucose infusion rate / T50% (time from baseline to half-maximal values), calculated on glucose infusion rate: glucose clamp; for T50% (time from baseline to half-maximal values), calculated on glucose infusion rate: healthy male volunteers
Source text: as §1
as §2, with “0. Glucose infusion rates, blood glucose, serum insulin and C-peptide were measured.” for “0.”

[4] = Time to peak blood concentration and uptake rate after pulmonary delivery (general statements)
[5] = in vivo; remark: listed apart in the source

parathyroid hormone 1-34: peptide complexed with FDKP for pulmonary delivery
Time to peak blood concentrations [1]: 3 to 10 min

insulin: insulin given as 5 IU intravenous or 10 IU subcutaneous injection, or by the pulmonary route without fumaryl diketopiperazine; comparator
T50% (time from baseline to half-maximal values), calculated on insulin levels ([2]; 5 IU insulin intravenous): 2 min | T to baseline, calculated on insulin levels ([2]; 5 IU insulin intravenous): 60 min | T-50% (time from baseline to half-maximal after passing Tmax), calculated on insulin levels ([2]; 5 IU insulin intravenous): 0.1 h | Tmax, calculated on insulin levels ([2]; 5 IU insulin intravenous): 0.083 h | T to baseline, calculated on insulin levels ([2]; 10 IU insulin subcutaneous): 360 min | T-50% (time from baseline to half-maximal after passing Tmax), calculated on insulin levels ([2]; 10 IU insulin subcutaneous): 4.17 h | Tmax, calculated on insulin levels ([2]; 10 IU insulin subcutaneous): 2.02 h | T to baseline, calculated on glucose infusion rate ([3]; 5 IU insulin intravenous, clamp duration 6 hours): 240 min | T-50% (time from baseline to half-maximal after passing Tmax), calculated on glucose infusion rate ([3]; 5 IU insulin intravenous): 1.37 h | Tmax, calculated on glucose infusion rate ([3]; 5 IU insulin intravenous): 0.233 h | T50% (time from baseline to half-maximal values), calculated on glucose infusion rate ([3]; 5 IU insulin intravenous): 9 min | T-50% (time from baseline to half-maximal after passing Tmax), calculated on glucose infusion rate ([3]; 10 IU insulin subcutaneous): 4 h | Tmax, calculated on glucose infusion rate ([3]; 10 IU insulin subcutaneous): 2.72 h | T50% (time from baseline to half-maximal values), calculated on glucose infusion rate ([3]; 10 IU insulin subcutaneous): 60 min | Time to peak blood concentrations ([4]; pulmonary route without fumaryl diketopiperazine): 25 to 60 min | Time to peak blood level ([4]; subcutaneous injection): 30 to 90 min

O=C(O)/C=C/C(=O)NCCCC[C@@H]1NC(=O)[C@H](CCCCNC(=O)/C=C/C(=O)O)NC1=O [FDKP, fumaryl diketopiperazine]
Transit from the lungs [5]: kinetics similar to that of insulin

salmon calcitonin
Time to peak blood concentrations [1]: 3 to 10 min

CCNC(=O)[C@@H]1CCCN1C(=O)[C@H](CCCNC(=N)N)NC(=O)[C@H](CC(C)C)NC(=O)[C@@H](CC(C)C)NC(=O)[C@H](Cc1ccc(O)cc1)NC(=O)[C@H](CO)NC(=O)[C@H](Cc1c[nH]c2ccccc12)NC(=O)[C@H](Cc1c[nH]cn1)NC(=O)[C@@H]1CCC(=O)N1 [leuprolide]
Time to peak blood concentrations [1]: 3 to 10 min
